Experimental data published in patent publication US20110038856A1, “METHODS OF TREATING NEOPLASTIC, AUTOIMMUNE AND INFLAMMATORY DISEASES” (Seattle Genetics, Inc., priority 2006, published 2011).

Key:
[1] = test system: patients with advanced myeloid malignancies (AML, MDS, CMML); experiment: Phase 1 single-arm dose escalation trial in patients with advanced myeloid malignancies
Procedure: Entry criteria included CD33 expression on >50% of the marrow blasts to ensure that adequate target antigen was present. […] Clinical response was assessed by bone marrow morphology and hematologic improvement. […] Among AML patients, 6 had antecedent hematologic disorder. Dosing cohorts included 1.5 (6), 2.5 (4), 4 (4), and 8 mg/kg (17).

[2] = test system: primary human macrophages; experiment: Cytokine/chemokine production by primary human macrophages; format: cell-based; settings: for production of IL-6, TNF-α, RANTES, and MCP-1: pre-incubation 3 hours with antibody, 24 hours
Procedure: Primary human macrophages were generated from long-term cultures of freshly isolated human peripheral blood mononuclear cells (PBMCs; AllCells, Emeryville, Calif. or LifeBlood, Memphis, Tenn.). PBMCs were cultured in tissue culture flasks in RPMI 1640 medium containing glutamine (Invitrogen, Grand Island, N.Y.), 10% heat-inactivated FBS, and antibiotics for 3 to 4 hours. Non-adherent cells were removed by washing with PBS and the adherent cells were cultured in OptiMem-1 medium (Invitrogen) containing 1% heat-inactivated FBS for 1 to 2 hours. The cells were washed with PBS and cultured for 10 to 14 days in X-VIVO-15 medium (Cambrex Bio Science, Walkersville, Md.) containing 500 U/ml GM-CSF (Peprotech, Rocky Hill, N.J.). […]

SGN-33: anti-CD33 antibody, a humanized version of mouse monoclonal antibody M195
tolerability ([1]; 1.5 mg/kg/wk, N=6, previously untreated patients, average age 76 years): well tolerated | patients achieving CR ([1]; among 18 patients with AML): 4 | patients achieving CR with incomplete platelet recovery ([1]; among 18 patients with AML): 1 | antitumor activity ([1]; an elderly patient with previously untreated AML): antitumor activity was observed | maximal tolerated dose ([1]; at 1.5 mg/kg/wk, N=6): without any evidence that a maximal tolerated dose has been reached | exposure (AUC) ([1]; doses 1.5 to 8 mg/kg): increased relative to dose | tolerability ([1]; doses up to 8 mg/kg/wk): well tolerated | anti-SGN-33 immune responses ([1]; first 15 patients tested): No anti-SGN-33 immune responses were detected | Grade 4 adverse events considered related to antibody ([1]; human, in vivo): none | infusion reactions during subsequent doses ([1]; human, in vivo): uncommon | accumulation ([1]; repeat dosing): accumulation was documented with repeat dosing | Grade 3 adverse events considered related to antibody ([1]; tumor lysis syndrome at 4 mg/kg, febrile neutropenia at 8 mg/kg): 2 | chills associated with the first infusion (most common drug-related adverse event) ([1]; weekly iv doses of 1.5 to 8 mg/kg): 11/31 | dose limiting toxicity ([1]; weekly iv doses of 1.5 to 8 mg/kg, 31 patients): has not been observed | levels of IL-6, TNF-α, MCP-1, and RANTES ([2]; macrophages treated 1 h prior to IFN-γ, LPS, or TGF-β, supernatants 18 h later, FIG. 18): significantly reduced | production of IL-6, TNF-α, RANTES, and MCP-1 ([2]; in response to IFN-γ, FIG. 6): reduced production | production of IL-6, TNF-α, RANTES, and MCP-1 ([2]; in response to conditioned media from RPMI-8226 and Karpus-620 cells, FIG. 7): reduced production | levels of TNF-α ([2]; primary human macrophages, various doses of SGN-33, 1 hr prior to IFN-γ, 18 h, p<0.05, FIG. 20): significantly reduced levels of TNF-α in a dose-dependent manner
